Experimental data taken from PMC3717276, “Optimization and validation of mitochondria-based functional assay as a useful tool to identify BH3-like molecules selectively targeting anti-apoptotic Bcl-2 proteins” (BMC Biotechnology, 2013).
Ends that are not written are not given here. * marks the point of attachment. 6FAM = O=C1OC2(c3ccc(O)cc3Oc3cc(O)ccc32)c2cc(C(=O)*)ccc21

B1: Human Mcl-1 protein, residues 171-327, N-terminal 8xHis tag (domain or fragment, UniProt Q07820-1 171-327, looked up)
chain: EDELYRQSLEIISRYLREQATGAKDTKPMGRSGATSRKALETLRRVGDGVQRNHETAFQGMLRKLDIKNEDDVKSLSRVMIHVFSDGVTNWGRIVTLISFGAFVAKHLKTINQESCIEPLAESITDVLVRTKRDWLVKQRGWDGFVEFFHVEDLEGG
notes: human Mcl-1 fragment (NM_021960), residues 171-327; Cloned into the pHis-TEV vector; source: E. coli BL21(DE3), purified (Ni-NTA, Source Q15)

How the values were obtained:
Details in all cases: both partners purified
[1] = biological target: B1; assay: SPR; competitive solution binding: protein (20 nM) pre-incubated with tested BH3 peptide for at least 30 min, injected over immobilised biotin-Bim BH3 peptide; response at 30 s of dissociation
[2] = biological target: B1; assay: fluorescence polarisation; competition: Mcl-1 (20 nM) or Bcl-2 (40 nM) pre-incubated with FAM-Bid (2 nM and 2.5 nM), tested BH3 peptide added, 2-3 h; 100 mM potassium phosphate, pH 7.5, 100 ug/ml bovine gamma globulin, 0.02% sodium azide; Ki calculated from IC50
[3] = biological target: T1, Biotin-labeled Bim BH3 peptide (residues 81-106) (biotin label, position not stated); assay: SPR; biotin-labeled Bim BH3 peptide immobilised on a streptavidin SA chip; proteins injected at different concentrations in HBS-EP (10 mM HEPES pH 7.4, 150 mM NaCl, 3 mM EDTA, 0.005% P20)
T1 construct: Bim BH3 peptide, residues 81-106 of Swiss-Prot O43521; also called immobilized Bim BH3 peptide; Bim peptide
T1 sequence (peptide, as listed by the source): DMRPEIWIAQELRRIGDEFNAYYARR

[4] = biological target: T2, Human Bcl-xL protein with internal deletion of 45-85 and C-terminal truncation of 212-233, N-terminal 8xHis … (human, UniProt Q07817-1 1-211, internal deletion of 45–85); assay: SPR; competitive solution binding: protein (20 nM) pre-incubated with tested BH3 peptide for at least 30 min, injected over immobilised biotin-Bim BH3 peptide; response at 30 s of dissociation
T2 construct: human Bcl-xL (NM_138578), internal deletion of residues 45-85 and C-terminal truncation of 212-233; Cloned into the pHis-TEV vector (a modified pET vector); source: E. coli BL21(DE3), purified (Ni-NTA, Superdex75)
T2 sequence (Q07817 other isoform, or with tags, fused parts or gaps internal deletion of 45–85 | internal deletion of 45–85): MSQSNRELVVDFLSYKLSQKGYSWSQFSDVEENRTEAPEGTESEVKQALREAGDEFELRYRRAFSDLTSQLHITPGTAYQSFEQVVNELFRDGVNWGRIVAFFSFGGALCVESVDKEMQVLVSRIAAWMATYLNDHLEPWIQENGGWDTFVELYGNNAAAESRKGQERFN

[5] = biological target: T2, Human Bcl-xL protein with internal …; assay: fluorescence polarisation; competition: 30 nM Bcl-xL and 2.5 nM FAM-Bak, tested BH3 peptide added; 50 mM Tris-Bis, pH 7.4, 0.01% bovine gamma globulin; Ki calculated from IC50
[6] = biological target: B1; assay: fluorescence polarisation; saturation experiments with FAM-Bid and Mcl-1 or Bcl-2 protein; assay buffer 100 mM potassium phosphate, pH 7.5, 100 ug/ml bovine gamma globulin, 0.02% sodium azide

Row | IC50 [1] | Ki [2] | Kd [3] | IC50 [4] | Ki [5] | Kd [6] | Binder
1 | 60.1 nM | 6 nM |  |  |  |  | QEDIIRNIARHLAQVGDSMDR (Bid BH3 peptide, residues 79-99 of Swiss-Prot P55957; also called unlabeled Bid BH3 peptide; source: provided by Dr. Peter P Roller (National Cancer Institute)) [Bid BH3 peptide (residues 79-99)]
2 |  |  | 0.2 nM |  |  |  | B1
3 | 51 nM | 97 nM |  | > 30000 nM | > 10000 nM |  | PAELEVECATQLRRFGDKLNFRQKLL (Noxa BH3 peptide, residues 18-43 of Swiss-Prot Q13794; source: provided by Dr. Peter P Roller (National Cancer Institute)) [Noxa BH3 peptide (residues 18-43)]
4 |  |  |  |  |  | 2.8 nM | 6FAM-QEDIIRNIARHLAQVGDSMDR (Bid BH3 peptide, residues 79-99 of Swiss-Prot P55957; also called Flu-Bid; source: synthetic peptide)
5 | > 30000 nM | > 20000 nM |  | 8.64 nM | 3.2 nM |  | NLWAAQRYGRELRRMSDEFVDSFKKG (Bad BH3 peptide, residues 103-128 of GenBank CAG46757; source: provided by Dr. Peter P Roller (National Cancer Institute)) [Bad BH3 peptide (residues 103-128)]
